From patent US20150307603A1 (MODIQUEST B V, published 2015)
Non-standard residues stand in square brackets, D forms with d. No end group written: not given here. Cit = NC(=O)NCCC[C@H](N)C(=O)O

Legend:
CFC-1 [1] = biological target: T1, CFC-1; experiment: ELISA, Ab 0.08 ug/well
T1 construct: Positive control for anti-citrulline reactivity; also called cfc1 XG; Cfc1-peptide
Experimental: (§1) Biotin and citrulline-containing peptides derived from histone 2A were immobilized on NEUTRAVIDIN®-coated 96-well ELISA plates (0.3 μg/well). CFC-1 and CFC-0 were coated at the same concentration and served as positive and negative controls, respectively, for specific anti-citrulline reactivity and as coating controls. Non-coated wells were used to test for aspecific binding of the antibodies. […] Detection of bound anti-citrulline antibodies was performed by incubating the wells with rabbit anti-human HRP (1:2000) for 1 hour at RT followed by incubation with TMB substrate. The resulting OD (y-axis) is a measure for antibody binding.

[2] = biological target: T2, peptide no. 11 (human histone 2A) (human, also: biotin-labelled); experiment: ELISA, Ab 0.08 ug/well
T2 construct: also called peptide 11
T2 peptide: LQLAI[Cit]NDEELN
Experimental: as §1

[3] = biological target: T3, peptide no. 6 (human histone 2A) (human, also: biotin-labelled); experiment: ELISA, Ab 0.08 ug/well
T3 construct: also called peptide 6
T3 peptide: VHRLL[Cit]KGNYSE
Experimental: as §1

[4] = biological target: T4, peptide no. 9 (human histone 2A) (human, also: biotin-labelled); experiment: ELISA, Ab 0.08 ug/well
T4 construct: also called peptide 9
T4 peptide: DNKKT[Cit]IIPRHL
Experimental: as §1

[5] = biological target: T5, peptide no. 2 (human histone 2A) (human, also: biotin-labelled); experiment: ELISA, Ab 0.08 ug/well
T5 construct: also called peptide 2
T5 peptide: AKAKS[Cit]SSRAGL
Experimental: as §1

[6] = biological target: T6, peptide no. 5 (human histone 2A) (human, also: biotin-labelled); experiment: ELISA, Ab 0.08 ug/well
T6 construct: also called peptide 5
T6 peptide: VGRVH[Cit]LLRKGN
Experimental: as §1

[7] = biological target: T7, peptide no. 12 (human histone 2A) (human, also: biotin-labelled); experiment: ELISA, Ab 0.08 ug/well
T7 construct: also called peptide 12
T7 peptide: NKLLG[Cit]VTIAQG
Experimental: as §1

[8] = biological target: T8, peptide no. 8 (human histone 2A) (human, also: biotin-labelled); experiment: ELISA, Ab 0.08 ug/well
T8 construct: also called peptide 8
T8 peptide: AGNAA[Cit]DNKKTR
Experimental: as §1

[9] = biological target: T9, peptide no. 4 (human histone 2A) (human, also: biotin-labelled); experiment: ELISA, Ab 0.08 ug/well
T9 construct: also called peptide 4
T9 peptide: QFPVG[Cit]VHRLLR
Experimental: as §1

[10] = biological target: T10, peptide no. 3 (human histone 2A) (human, also: biotin-labelled); experiment: ELISA, Ab 0.08 ug/well
T10 construct: also called peptide 3
T10 peptide: KSRSS[Cit]AGLQFP
Experimental: as §1

[11] = biological target: T11, peptide no. 1 (human histone 2A) (human, also: biotin-labelled); experiment: ELISA, Ab 0.08 ug/well
T11 construct: also called peptide 1; AAASGXGKQGGK
T11 peptide: AAASG[Cit]GKQGGK
Experimental: as §1

CFC-1 [12] = biological target: T1, CFC-1; experiment: ELISA, Ab 2 ug/well
Experimental: as §1, with “fibrinogen and vimentin” for “histone 2A”
(§2) Biotin-labeled and citrulline-containing fibrinogen and vimentin peptides (Table 5) were also tested for reactivity with the therapeutic antibodies. Peptides were coated on 96-well NEUTRAVIDIN®-ELISA plates.

msFibα XH [13] = biological target: T12, msFibα XH (mouse, X at position 15 = citrulline; biotin-labelled); experiment: ELISA, Ab 2 ug/well
T12 peptide: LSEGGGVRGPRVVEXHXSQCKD
Experimental: as §1, with “fibrinogen and vimentin” for “histone 2A”
as §2

msFibβ XG [14] = biological target: T13, msFibβ XG (mouse, also: biotin-labelled); experiment: ELISA, Ab 2 ug/well
T13 construct: also called mouse fibrinogen β peptide
T13 peptide: EPTDSLDA[Cit]GHRPVDRR
Experimental: as §1, with “fibrinogen and vimentin” for “histone 2A”
as §2

msVim XS/XL [15] = biological target: T14, msVim XS/XL (mouse, also: biotin-labelled); experiment: ELISA, Ab 2 ug/well
T14 construct: also called mouse vimentin peptide
T14 peptide: YVT[Cit]SSAV[Cit]L[Cit]SSVP
Experimental: as §1, with “fibrinogen and vimentin” for “histone 2A”
as §2

msFibα XG [16] = biological target: T15, msFibα XG (mouse, X at position 8 = citrulline; biotin-labelled); experiment: ELISA, Ab 2 ug/well
T15 peptide: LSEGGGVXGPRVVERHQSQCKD
Experimental: as §1, with “fibrinogen and vimentin” for “histone 2A”
as §2

huFibα XH [17] = biological target: T16, huFibα XH (human, X at position 15 = citrulline; biotin-labelled); experiment: ELISA, Ab 2 ug/well
T16 peptide: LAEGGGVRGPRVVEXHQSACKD
Experimental: as §1, with “fibrinogen and vimentin” for “histone 2A”
as §2

huFibα XG [18] = biological target: T17, huFibα XG (human, X at position 8 = citrulline; biotin-labelled); experiment: ELISA, Ab 2 ug/well
T17 peptide: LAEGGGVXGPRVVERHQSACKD
Experimental: as §1, with “fibrinogen and vimentin” for “histone 2A”
as §2

CFC-1 [19] = biological target: T1, CFC-1; experiment: ELISA, Ab 0.0032 ug/well
Experimental: as §1, with “fibrinogen and vimentin” for “histone 2A”
as §2

msFibα XH [20] = biological target: T12, msFibα XH; experiment: ELISA, Ab 0.0032 ug/well
Experimental: as §1, with “fibrinogen and vimentin” for “histone 2A”
as §2

msFibβ XG [21] = biological target: T13, msFibβ XG; experiment: ELISA, Ab 0.0032 ug/well
Experimental: as §1, with “fibrinogen and vimentin” for “histone 2A”
as §2

msVim XS/XL [22] = biological target: T14, msVim XS/XL; experiment: ELISA, Ab 0.0032 ug/well
Experimental: as §1, with “fibrinogen and vimentin” for “histone 2A”
as §2

msFibα XG [23] = biological target: T15, msFibα XG; experiment: ELISA, Ab 0.0032 ug/well
Experimental: as §1, with “fibrinogen and vimentin” for “histone 2A”
as §2

huFibα XH [24] = biological target: T16, huFibα XH; experiment: ELISA, Ab 0.0032 ug/well
Experimental: as §1, with “fibrinogen and vimentin” for “histone 2A”
as §2

huFibα XG [25] = biological target: T17, huFibα XG; experiment: ELISA, Ab 0.0032 ug/well
Experimental: as §1, with “fibrinogen and vimentin” for “histone 2A”
as §2

msVim XS/XL [26] = biological target: T14, msVim XS/XL; experiment: ELISA, Ab 10 ug/well
Experimental: as §1, with “fibrinogen and vimentin” for “histone 2A”
as §2

msFibα XG [27] = biological target: T15, msFibα XG; experiment: ELISA, Ab 10 ug/well
Experimental: as §1, with “fibrinogen and vimentin” for “histone 2A”
as §2

huFibα XG [28] = biological target: T17, huFibα XG; experiment: ELISA, Ab 10 ug/well
Experimental: as §1, with “fibrinogen and vimentin” for “histone 2A”
as §2

B1: RhmAb2.102 (antibody, human IgG1, lambda)
heavy: not shown
light: QSVLTQPPSMSAAPGQKVTISCSGSSSNIGNNYVSWYQQVPGTAPKLLIYDDNKRPSGIPGRFSGSKSATSATLGITGLQAGDEADYYCGSWDDNLSVVLFGGGTKLTVLGQPKAAPSVTLFPPSSEELQANKATLVCLISDFYPGAVTVAWKADSSPVKAGVETTTPSKQSNNKYAASSYLSLTPEQWKSHRSYSCQVTHEGSTVEKTVAPTECS
notes: Human IgG1 lambda; also called Rhm2.102
OD (CFC-1 [1]): 2.66 OD450 | OD [2]: 0.064 OD450 | OD [3]: 0.123 OD450 | OD [4]: 0.06 OD450 | OD [5]: 0.086 OD450 | OD [6]: 0.066 OD450 | OD [7]: 0.06 OD450 | OD [8]: 0.06 OD450 | OD [9]: 0.192 OD450 | OD [10]: 0.091 OD450 | OD [11]: 2.04 OD450 | OD (CFC-1 [12]): 3.97 OD450 | OD (msFibα XH [13]): 0.091 OD450 | OD (msFibβ XG [14]): 3.15 OD450 | OD (msVim XS/XL [15]): 2.77 OD450 | OD (msFibα XG [16]): 1.9 OD450 | OD (huFibα XH [17]): 0.116 OD450 | OD (huFibα XG [18]): 1.51 OD450 | OD (CFC-1 [19]): 0.506 OD450 | OD (msFibα XH [20]): 0.085 OD450 | OD (msFibβ XG [21]): 0.12 OD450 | OD (msVim XS/XL [22]): 0.142 OD450 | OD (msFibα XG [23]): 0.125 OD450 | OD (huFibα XH [24]): 0.123 OD450 | OD (huFibα XG [25]): 0.125 OD450 | OD (msVim XS/XL [26]): 3.69 OD450 | OD (msFibα XG [27]): 3.03 OD450 | OD (huFibα XG [28]): 2.73 OD450
